Target: T1, Flag-PPARγ, transfected in HEK293 cells (UniProt P37231 1-505)
T1 sequence (looked up): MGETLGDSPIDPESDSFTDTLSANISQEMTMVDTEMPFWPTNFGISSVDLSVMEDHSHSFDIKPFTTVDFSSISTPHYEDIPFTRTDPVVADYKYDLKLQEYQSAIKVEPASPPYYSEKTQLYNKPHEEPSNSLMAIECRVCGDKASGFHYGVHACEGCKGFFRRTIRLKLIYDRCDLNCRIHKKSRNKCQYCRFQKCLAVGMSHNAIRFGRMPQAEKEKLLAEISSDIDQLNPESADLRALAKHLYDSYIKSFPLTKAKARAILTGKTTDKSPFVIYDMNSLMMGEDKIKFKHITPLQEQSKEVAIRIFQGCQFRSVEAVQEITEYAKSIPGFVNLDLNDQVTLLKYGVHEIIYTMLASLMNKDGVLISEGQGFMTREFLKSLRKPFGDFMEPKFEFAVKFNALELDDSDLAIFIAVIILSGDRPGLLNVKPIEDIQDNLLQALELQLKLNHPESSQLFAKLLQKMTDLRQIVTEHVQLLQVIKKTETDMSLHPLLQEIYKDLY
Experiment: cell-based or functional assay

B1: Myc-RXRγ (retinoid X receptor γ), transfected in HEK293 cells (natural protein, UniProt P48443 1-463, looked up)
chain: MYGNYSHFMKFPAGYGGSPGHTGSTSMSPSAALSTGKPMDSHPSYTDTPVSAPRTLSAVGTPLNALGSPYRVITSAMGPPSGALAAPPGINLVAPPSSQLNVVNSVSSSEDIKPLPGLPGIGNMNYPSTSPGSLVKHICAICGDRSSGKHYGVYSCEGCKGFFKRTIRKDLIYTCRDNKDCLIDKRQRNRCQYCRYQKCLVMGMKREAVQEERQRSRERAESEAECATSGHEDMPVERILEAELAVEPKTESYGDMNMENSTNDPVTNICHAADKQLFTLVEWAKRIPHFSDLTLEDQVILLRAGWNELLIASFSHRSVSVQDGILLATGLHVHRSSAHSAGVGSIFDRVLTELVSKMKDMQMDKSELGCLRAIVLFNPDAKGLSNPSEVETLREKVYATLEAYTKQKYPEQPGRFAKLLLRLPALRSIGLKCLEHLFFFKLIGDTPIDTFLMEMLETPLQIT
**Q.** For B1, which “luciferase activity of a PPRE reporter in HEK293 cells, RXRγ co-expressed with PPARγ (PPARγ alone 1.6-fold; RXRγ alone no increase)” value is on record?
**A.** Its value is 2.1 fold.

**Q.** What about the “luciferase activity of a UCP1 promoter reporter in HEK293 cells, RXRγ co-expressed with PPARγ (PPARγ alone 1.5-fold; RXRγ alone no increase)” value of the same binder?
**A.** The value was 3.4 fold.
